The target of this test is extracellular domain (ECD) of recombinant human Sortilin with a C-terminal HIS tag (ECD-huSortilin-HIS) (UniProt Q99523 78-755). As to the kind of experiment: ELISA.

One molecule from patent US20230348588A1 (published 2023) can be followed below.

Chain of extracellular domain (ECD) of recombinant human Sortilin with a C-terminal HIS tag (ECD-huSortilin-HIS) (Q99523 78-755): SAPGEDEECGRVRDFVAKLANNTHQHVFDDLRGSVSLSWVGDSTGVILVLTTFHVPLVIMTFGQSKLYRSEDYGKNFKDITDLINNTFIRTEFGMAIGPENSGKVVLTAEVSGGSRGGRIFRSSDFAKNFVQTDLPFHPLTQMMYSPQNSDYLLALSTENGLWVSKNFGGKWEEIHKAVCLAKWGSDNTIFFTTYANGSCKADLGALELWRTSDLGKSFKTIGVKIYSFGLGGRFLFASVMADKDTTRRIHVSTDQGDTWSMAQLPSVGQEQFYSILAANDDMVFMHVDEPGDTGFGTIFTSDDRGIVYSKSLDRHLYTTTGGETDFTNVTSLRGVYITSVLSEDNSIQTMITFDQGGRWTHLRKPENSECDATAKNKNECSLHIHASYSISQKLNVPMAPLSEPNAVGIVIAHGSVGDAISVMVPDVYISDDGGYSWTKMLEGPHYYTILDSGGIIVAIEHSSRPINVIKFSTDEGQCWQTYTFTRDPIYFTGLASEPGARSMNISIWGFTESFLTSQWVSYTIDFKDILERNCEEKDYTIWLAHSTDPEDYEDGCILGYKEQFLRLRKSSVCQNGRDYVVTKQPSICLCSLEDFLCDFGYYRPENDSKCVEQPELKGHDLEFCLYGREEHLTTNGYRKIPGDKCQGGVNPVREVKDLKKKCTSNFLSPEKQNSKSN

B1: mouse monoclonal antibody 4N2 (antibody, V domains shown)
VH: EVKLVESGGGLVKPGGSLKLSCGASGFTFSNYVMSWVRQTPERRLEWVATISGGGRYSYYPDSVKGRFTISRDNAKNNLYLQMSSLRSEDTALYYCGRQDDYDSFPYCGQGTLVTVSV
VL: DILLTQSPAILSVSLGERVSFSCRASQSIGTSIHWFQLRTNGSPRLLIKYASEPISGIPSRFSGSGSGTDFTLSINSVESEDIADYFCQQSKSWPITFGTGTKLELK
Regarding B1, the concentration for a half-maximal effect (EC50) is 5.8 nM.
